# Literature values in PMC2805756.
# Molecular target: His107 (UniProt position 107, SSGMIHLLVQV)
# Experiment: kinetics
# Conditions: free wild-type enzyme (thiolate-imidazolium ion pair)
substance,measurement,value
"Arylamine N-acetyltransferase 2 (hamster NAT2), wild type (Mesocricetus auratus (the article says only 'hamster'))",pKa,>9.5
